Experimental data from the supplement of paper PMC9170038.

Tested on: MS2 coat protein
Assay: apparent KD of MS2 coat protein; higher = weaker reporter binding
Settings: Eterna round: R107
Description: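 RNA-MaP round R107: designed RNA switches with theophylline, tryptophan, arginine or FMN aptamers are transcribed on-chip within common flanks. They are titrated with SNAP-549-labelled MS2 coat protein in RNA-MaP buffer (100 mM Tris pH 7.5, 80 mM KCl, 4 mM MgCl2), without ligand or with the indicated ligand. Median apparent KD per design.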

[1] = input ligand: theophylline 20 uM
[2] = input ligand: tryptophan 2.4 mM
[3] = input ligand: theophylline 2 mM

| Sequence | apparent KD of MS2 coat protein (input ligand: arginine 13.2 mM) | apparent KD of MS2 coat protein [1] | apparent KD of MS2 coat protein [2] | apparent KD of MS2 coat protein (input ligand: none) | apparent KD of MS2 coat protein [3] |
| --- | --- | --- | --- | --- | --- |
| GGCUGUUGCUCUUUGAAGCGGCAGCGUGAUACCAGAUGUAAGAGCGUCCCUUGGCAGCACGUUUACAUGAGGAUCACCCAUGUCA [Raisquin] | 0.0706 µM | 0.163 µM | 0.151 µM |  |  |
| UGUAUGUGAUUUGAUACCAGACCAGCUGGUGGUACCUGAGGAUCACCCAGGUAGGUUUGGGUCCCUUGGCAGCAAAUCGCAUACU [SS Theo B #24 Ms6] | 0.022 µM | 0.0238 µM | 0.0212 µM | 0.0206 µM | 0.0114 µM |
| AAACGCCACGGAAGGAGCGACAUGAGGAUCACCCAUGUAGACGUGGCGGAUGCACCCUCCUGUCAGGUAGGUCGCCGUGCGCCAA [Engebite] | 0.0109 µM | 0.0155 µM | 0.0112 µM | 0.011 µM | 0.0122 µM |
| UGAUAUAUGCGAAGGAGCGGGAAAUAUAUAUAUAUAAUCCUAACAUGAGGAUCACCCAUGUCCCAGGUAGGUCGCGCAUAUAUUG [12.D] | 0.0587 µM | 0.0785 µM | 0.0597 µM | 0.0648 µM | 0.0771 µM |
| AGACAUGUAGGAUAAUUGACUAUUACAGAUACCAGACUGUCUAAUGUCCCUUGGCAGCUGCAUUACAUGAGGAUCACCCAUGUUA [JR_ExcTheophyA_Sub012] | 0.0165 µM | 0.0227 µM | 0.0204 µM |  |  |
| ACACACAUGAGGAUCACCCAUGUCUAUAUACGAGGACCGGUACGGCCGCCACUCGUGAGAUCGCGAGAGACAGCUUUGGGCUAGU [theeternabot_sameState_MS2_Trp_A_37] | 0.017 µM | 0.0239 µM |  |  | 0.019 µM |
| UGCCGAGACGUGGAUUACCCGUGUACCGAAGGAGCGCCCGAAAGGGCAGGUAGGUCGCGGAGGACAUGAGGAUCACCCAUGUCGA | 0.0373 µM | 0.0935 µM | 0.0837 µM | 0.0521 µM | 0.065 µM |
| CGCACAUGAGGAUCACCCAUGUGAGGGCGACGAGGACCGGUACGGCCGCCACUCGCAAAACAUGAGGAUCACCCAUGUGCCGCCG [SSTA DOUBLE!!! :-D #3] | 0.0197 µM | 0.0427 µM | 0.0203 µM | 0.0193 µM | 0.0291 µM |
| GAGCUGAUGUAGAAAUUUUAUUUAUGAGAUACCAGUACAGAAAUGUACCCUUGGCAGCUCAAUUUUACAUGAGGAUCACCCAUGU [Ex Theophylline A 13] | 0.0168 µM | 0.0125 µM | 0.0115 µM |  |  |
| GUAAAUUAUAGAAGGAGCGUCGAAAAUGGGUAAACAUGAGGAUCACCCAUGUAAAGGGAACGACAGGUAGGUCGCUAUAAUUUAC [AstromonsSSArgB#15] | 0.116 µM | 0.19 µM | 0.167 µM | 0.17 µM | 0.259 µM |
| ACAUGAGGAUCACCCAUGUUAAGCACAGAAGGAGCGUGAAGAAACACAGGUAGGUCGCUGUACUUAUCGAGCGUUAGCUCGAUAC [JR_Nu_SSArginiA_Sub029] | 0.0137 µM | 0.029 µM | 0.0209 µM | 0.0231 µM | 0.0264 µM |
| GGACUAACCAGAAGGAGCGACGCGCAGAAACUGCAAAAUCCUCCGCACGAGGAUCACCCGUGUCAGGUAGGUCGCUGGUUAGUCG | 0.0219 µM | 0.0345 µM | 0.0277 µM | 0.0296 µM | 0.0326 µM |
| ACCUCACUCUCUGAUACCAGCUAACAACAUGAGGAUCACCCAUGUCAGACUUGUAUUGAUAGCCCUUGGCAGCAGAGGUAACUGC [#16 Exclusion-TheophyllineB] | 0.0139 µM | 0.0212 µM | 0.0168 µM |  |  |
| UCGGGCAGAGCGGCCGCCACUGUUUGGCAUGCGGAUGAAGGAACAUGAGGAUCACCCAUGUAGAUUAGGACCGGGCUUUCGGAGA [cctchmullin] | 0.0193 µM | 0.0328 µM | 0.0222 µM | 0.0214 µM | 0.0255 µM |
| GAUAUAUAUCGAAGGAGCGGCCCUUGAUCCUCAUGAGACAUGAGGAUCACCCAUGUCUCGGGCCAGGUAGGUCGCGAUAUAUAUC [Astros-omei-mod2] | 0.0263 µM | 0.0288 µM | 0.0228 µM | 0.0212 µM | 0.0242 µM |
| GGCCAUGGAAACAUGGCGGCGGCAUAAGCGCGAGGACCGGUACGGCCGCCACUCGGGCGACAUGAGGAUCACCCAUGUUCCUCAU [ETA NP+V+V2 #23 Same Structure] | 0.105 µM | 0.413 µM |  |  | 0.529 µM |
| UAUGUGAUAGUCGUACUCUCACACUGAGAAGGAGCGCGAUAGUUCGCAGGUAGGUCGCUCAGUUAUACAUGAGGAUCACCCAUGU [Isrice] | 0.0253 µM | 0.0329 µM | 0.0264 µM | 0.0326 µM | 0.0324 µM |
| AAUAUAAGUGUAAUUUUAUGUAUCUCUGAUACCAGACCCUCAUGUGUCCCUUGGCAGCAGUAACAUGAGGAUCACCCAUGUAAAA [JR_Nu_SSTheophyA_Sub023] | 0.0307 µM | 0.103 µM | 0.086 µM |  |  |
